In publication PMC7546529 (Nature microbiology, 2020):

Biological target: the molecule itself
Assay: cryo-EM structure

B1: portal protein (BBRF1 gene-encoded portal complex) (natural protein)
chain: MFNMNVDESASGALGSSAIPVHPTPASVRLFEILQGKYAYVQGQTIYANLRNPGVFSRQVFTHLFKRAISHCTYDDVLHDWNKFEACIQKRWPSDDSCASRFRESTFESWSTTMKLTVRDLLTTNIYRVLHSRSVLSYERYVDWICATGMVPAVKKPITQELHSKIKSLRDRCVCRELGHERTIRSIGTELYEATKEIIESLNSTFIPQFTEVTIEYLPRSDEYVAYYCGRRIRLHVLFPPAIFAGTVTFDSPVQRLYQNIFMCYRTLEHAKICQLLNTAPLKAIVGHGGRDMYKDILAHLEQNSQRKDPKKELLNLLVKLSENKTISGVTDVVEEFITDASNNLVDRNRLFGQPGETAAQGLKKKVSNTVVKCLTDQINEQFDQINGLEKERELYLKKIRSMESQLQASLGPGGNNPAASAPAAVAAEAASVDILTGSTASAIEKLFNSPSASLGARVSGHNESILNSFVSQYIPPSREMTKDLTELWESELFNTFKLTPVVDNQGQRLYVRYSSDTISILLGPFTYLVAELSPVELVTDVYATLGIVEIIDELYRSSRLAIYIEDLGRKYCPASATGGDHGIRQAPSARGDTEPDHAKSKPARDPPPGAGS
stoichiometry N: 12
